Data from patent US20210162028A1, “Methods for Inducing Intermittent Fasting and Modulating Autophagy” (The Hong Kong Polytechnic University, priority 2019, published 2021).
“Also recorded” adds a separate entry of the source.

Legend:
[1] = Glucose tolerance test (GTT); format: in vivo, mouse
hepatocellular carcinoma = test: Frequency of hepatocellular carcinoma at autopsy; format: in vivo, mouse
Excerpt: Development of neoplasm in the liver is one of the major characteristics of aging in C57BL/6J male mice with long-term feeding on a HFD, which may be related to the development of severe non-alcoholic fatty liver disease. Treatment with N-ABD094-rhArg [SEQ ID NO: 50] can effectively reverts hepatic steatosis and lower serum concentrations of liver damage biomakers ALT and AST (FIG. 7). Autopsy performed at the end of experiment confirmed the presence of hepatocellular carcinoma (FIG. 28A) in around 40% of C57BL/6J male mice that had been fed on a HFD for 46 weeks (12+34 weeks) starting from 5-week old [HFD (vehicle) group in FIG. 1] (FIG. 28B). The incidence rate even increased to 100% in mice fed on the HFD for 61 weeks (12+49 weeks) [HFD (vehicle) group in FIG. 3] (FIG. 28C). […] These findings support that rhArg has potent effects on prevention of liver cancer.

[2] = Insulin tolerance test (ITT); format: in vivo, mouse
Excerpt: In terms of reversing insulin resistance on pre-existing obese mice, insulin tolerance test (ITT) was employed (FIG. 59).
In terms of reversing insulin resistance on pre-existing obese mice, insulin tolerance test (ITT) was employed (FIG. 68A).

Rotarod test = format: in vivo, mouse
[3] = Hepatic steatosis (oil Red O / H&E staining, liver triglyceride); format: in vivo, mouse; conditions: DIO C57BL/6J male mice on HFD; for Lipid in liver (H&E staining): 11 weeks after treatment
[4] = Half-life / therapeutic duration in circulation; set-up: species or system mice; conditions: mouse, in vivo
Excerpt: As used herein, the term “half-life” or “½-life” refers to the time that would be required for the concentration of an agent, e.g., a fusion protein or arginine depleting agent as described herein, to fall by half in vitro or in vivo, for example, after injection into a mammal. In certain instances, the concentration of plasma arginine, after injection, is used herein as a proxy indicator of the half-life of the agent. In such instances, the term “therapeutic duration” is used to refer to the length of time a specified dosage of the arginine depleting agent is able to maintain the plasma concentration of arginine below a specified threshold concentration that a desired therapeutic effect is observed. In certain embodiments, the threshold concentration of plasma arginine is below 50 μM, below 40 μM, below 30 μM, below 20 μM, below 10 μM, below 5 μM, below 3 μM, or at a concentration below the detection limit of conventional analytical instrumentation.
Importantly, the present invention used a new ABD fusion approach to join an ABD and an arginase together so that arginase activity can be retained. Stable and soluble arginase-ABD fusion molecules that can bind to FcRn in a pH-dependent manner were successfully generated, allowing for efficient endosomal recycling. […] Taken together, a variety of different approaches are available for fine-tuning the pharmacokinetic properties of arginases, ensuring appropriate residence time in circulation for different disease conditions. Another key issue in the development of any therapeutic protein is to minimize immunogenicity to avoid adverse effects. Thus, the observed low immunogenicity of human arginase and the successful deimmunization of ABD (e.g. ABD094), which was also used in the present disclosure as gene fusion partner to extend the in vivo half-life, are important.

[5] = Fat pad and organ mass at end of treatment; format: in vivo, mouse; conditions: DIO C57BL/6J male mice on HFD, about 600 U once a week, 34 weeks
Excerpt: Other than WAT and BAT, obesity is associated with excessive accumulation of lipids in the liver (hepatic steatosis). Indeed, the liver of vehicle-treated DIO mice was markedly enlarged (FIG. 7A), with a mass about 3 times (4.68 g) that of the lean control (1.73 g) (FIG. 7B).
Other than liver, obesity is also commonly associated with lipid accumulation in the kidney (renal steatosis) and heart (cardiac steatosis), causing lipotoxicity and dysfunction of these organs. Indeed, there was an increase in kidney and heart mass in DIO mice treated with vehicle (FIG. 8A and FIG. 9A).

[6] = Fat pad and organ mass at end of treatment; format: in vivo, mouse
[7] = DIO C57BL/6J male mice on HFD, 300 U rhArg once a week and/or 300 mg/kg metformin daily
[8] = DIO C57BL/6J male mice on HFD, 600 U once a week, 5 weeks (artificial IF experiment)

B1: N-ABD094-rhArg: recombinant human arginase fused to albumin binding domain ABD094 (SEQ ID NO: 50); engineered long-acting arginine-depleting enzyme (protein)
chain: MHHHHHHDEAVDANSLAEAKEAANAELDSYGVSDFYKRLIDKAKTVEGVEALKDAILAALPSGSNNNNNNGSGGMSAKSRTIGIIGAPFSKGQPRGGVEEGPTVLRKAGLLEKLKEQECDVKDYGDLPFADIPNDSPFQIVKNPRSVGKASEQLAGKVAEVKKNGRISLVLGGDHSLAIGSISGHARVHPDLGVIWVDAHTDINTPLTTTSGNLHGQPVSFLLKELKGKIPDVPGFSWVTPCISAKDIVYIGLRDVDPGEHYILKTLGIKYFSMTEVDRLGIGKVMEETLSYLLGRKKRPIHLSFDVDGLDPSFTPATGTPVVGGLTYREGLYITEEIYKTGLLSGLDIMEVNPSLGKTPEEVTRTVNTAVAITLACFGLAREGNHKPIDYLNPPK
modifications: N-ABD094-rhArg, Synthesized in the Lab
notes: engineered long-acting arginine-depleting enzyme
- Glucose tolerance in GTT ([1]; 16-month old DIO C57BL/6J male mice on HFD, once a week, at 12 weeks): effectively reverse impaired glucose tolerance
- Glucose tolerance in GTT ([1]; 17-month old C57BL/6J male mice on chow diet, once a week, at 15 weeks): to a level better than mice in CD Young (vehicle) group; also recorded: effectively improve glucose tolerance
- Glucose tolerance in GTT ([1]; DIO C57BL/6J male mice on HFD, 300 U/week rhArg and/or 300 mg/kg metformin, after 7 weeks): significant improvement on glucose tolerance
- Glucose tolerance in GTT ([1]; DIO C57BL/6J male mice on HFD, 600 U once a week, after 3 weeks (reduced daily food intake experiment)): improved glucose tolerance
- Glucose tolerance in GTT ([1]; DIO C57BL/6J male mice on HFD, 600 U once a week, at 3 weeks (artificial IF experiment)): significant improvement in glucose tolerance by 3 weeks of treatment
- Glucose tolerance in GTT ([1]; DIO C57BL/6J male mice on HFD, about 600 U once a week, at 15 and 31 weeks): significant improvement in glucose tolerance to a level comparable with the lean control mice; also recorded: effectively reverse impaired glucose tolerance
- Glucose tolerance in GTT ([1]; DIO C57BL/6J male mice on HFD, rhArg weekly and/or 0.33 mg/day RA, after 7 weeks): cannot relieve glucose intolerance
- Glucose tolerance in GTT ([1]; DIO ICR female mice on HFD, once a week, at 16 and 30 weeks): Improved glucose tolerance
- Development of hepatocellular carcinoma (hepatocellular carcinoma; DIO C57BL/6J male mice on HFD, weekly for 34 weeks, vehicle around 40%): none of the mice developed hepatocellular carcinoma
- Development of hepatocellular carcinoma (hepatocellular carcinoma; DIO C57BL/6J male mice on HFD, weekly for 49 weeks, vehicle 100%): none of the mice developed hepatocellular carcinoma
- Development of hepatocellular carcinoma (hepatocellular carcinoma; DIO ICR female mice on HFD, weekly for 56 weeks, vehicle over 30%): none of the mice in HFD (rhArg) group developed hepatocellular carcinoma; also recorded: effectively prevent the development of hepatocellular carcinoma
- Insulin sensitivity in ITT ([2]; 16-month old DIO C57BL/6J male mice on HFD, once a week, at 9 weeks): markedly reverse pre-existing insulin resistance; also recorded: effectively reverse insulin resistance
- Insulin sensitivity in ITT ([2]; DIO C57BL/6J male mice on HFD, 300 U/week rhArg and/or 300 mg/kg metformin, after 6 weeks): marginal effect on improving insulin sensitivity but not reach statistical significant
- Insulin sensitivity in ITT ([2]; DIO C57BL/6J male mice on HFD, 600 U once a week, after 2 weeks (reduced daily food intake experiment)): marked increase in insulin sensitivity by 2 weeks after treatment
- Insulin sensitivity in ITT ([2]; DIO C57BL/6J male mice on HFD, 600 U once a week, at 2 and 4 weeks (artificial IF experiment)): reversal of insulin resistance and marked increase in insulin sensitivity by 2 weeks after treatment; also recorded: significant improvement in insulin sensitivity by 2 weeks
- Insulin sensitivity in ITT ([2]; DIO C57BL/6J male mice on HFD, about 600 U once a week, at 16 and 32 weeks): complete reversion of insulin resistance; also recorded: effectively reverse insulin resistance
- Insulin sensitivity in ITT ([2]; DIO C57BL/6J male mice on HFD, rhArg weekly and/or 0.33 mg/day RA, after 6 weeks): marginal effect on improving insulin sensitivity but not reach statistical significant
- Insulin sensitivity in ITT ([2]; DIO ICR female mice on HFD, once a week, at 15 and 31 weeks): better insulin sensitivity than age-matched mice in CD (vehicle) group
- Rotarod test: latency to fall (Rotarod test; DIO C57BL/6J male mice on HFD, weekly for 30 weeks): latency similar to mice in CD (vehicle) group
- Rotarod test: performance (Rotarod test; DIO ICR female mice on HFD, weekly, at 55 weeks): significantly better than mice in HFD (vehicle) group
- Lipid droplets in liver (oil Red O) ([3]; 600 U once a week, 12 weeks): dramatic clearance of lipid droplets
- Liver triglyceride concentrations ([3]; 600 U once a week, 12 weeks): reduced to a level similar to the lean control
- Lipid in liver (H&E staining) ([3]; rhArg and/or RA): significant effect on diminishing lipid in liver
- Lipid in liver (H&E staining) ([3]; rhArg and/or metformin): slight effect of diminishing lipid in liver
- Therapeutic duration (and half-life) [4]: much longer than BHA and BAH
- Kidney and heart mass [5]: significantly less than that of the vehicle-treated DIO mice
- Mass of perirenal, inguinal and interscapular fat pad, relative to DIO mice treated with vehicle [5]: less than 20%
- Liver mass ([5]; vehicle DIO 4.68 g, lean control 1.73 g): 1.39 g
- Fat pad mass of perirenal and inguinal WAT, interscapular BAT and liver mass ([6]; 17-month old C57BL/6J male mice on chow diet, once a week, 21 weeks): significant reduction in the fat pad mass
- Mass of liver ([6]; 17-month old C57BL/6J male mice on chow diet, once a week, 21 weeks, versus CD Old (vehicle) and CD Young (vehicle)): the lowest amongst all 3 groups
- Mass of organs including liver, kidney and BAT [6, 7]: cannot reduce the mass of most organs
- Visceral and subcutaneous fat mass [6, 7]: did not reduce body fat
- Fat pad mass of perirenal and inguinal WAT and interscapular BAT [6, 8]: marked reduction in the fat pad mass
- Liver mass [6, 8]: prominently reduced to the same extent for both groups
- Liver weight ([6]; DIO C57BL/6J male mice on HFD, 600 U once a week, 12 weeks): the weight was similar to the lean control
- Fatty pancreas ([6]; DIO C57BL/6J male mice on HFD, half dose alone): can also reverse the fatty pancreas
- Mass of organs including liver, pancreas and BAT ([6]; DIO C57BL/6J male mice on HFD, rhArg once a week alone or 0.33 mg RA daily alone): can already reduce the mass of most organs
- Visceral and subcutaneous fat mass ([6]; DIO C57BL/6J male mice on HFD, rhArg once a week and/or 0.33 mg RA daily): did not reduce body fat
- Fat pad mass (WAT, BAT) and liver, kidney and heart mass ([6]; DIO ICR female mice on HFD, once a week, 56 weeks): significantly less than that of HFD-fed mice treated with vehicle
